As a reminder, the Kd is the equilibrium constant for the complex coming apart. Higher therefore signals weaker binding.

Numbering of substitutions follows the chain as printed.

Results on 20 molecules are retold here after patent US20240092890A1 (JUNTENDO EDUCATIONAL FOUNDATION, published 2024).

In test [1] the target is T1, protein having an Fc region and a His-tag added to the N-terminus of SEQ ID NO: 1.
T1 construct: also called mutant CALR protein (antigen of the BLItz measurement); not shown: Fc region and His-tag at the N-terminus
T1 chain: RRMMRTKMRMRRM
Briefly: BLItz biolayer interferometry, Fc/His-SEQ ID NO: 1 protein on the biosensor. In outline:
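The Fc/His-tagged protein was loaded at 0.1 mg/mL onto Anti-Penta-HIS or Protein A biosensors. Antibodies were run at 500, 100 and 50 nM by biolayer interferometry, and the dissociation constant was derived from these binding curves.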
On the technique in general: BLI is a label-free optical method that tracks binding on a fibre tip over time.

For test [2], the target named is T2, Ins 5 type mutant CALR protein on UT-7/TPO CALR Ins 5 cells (UniProt P27797 18-417).
T2 sequence (looked up): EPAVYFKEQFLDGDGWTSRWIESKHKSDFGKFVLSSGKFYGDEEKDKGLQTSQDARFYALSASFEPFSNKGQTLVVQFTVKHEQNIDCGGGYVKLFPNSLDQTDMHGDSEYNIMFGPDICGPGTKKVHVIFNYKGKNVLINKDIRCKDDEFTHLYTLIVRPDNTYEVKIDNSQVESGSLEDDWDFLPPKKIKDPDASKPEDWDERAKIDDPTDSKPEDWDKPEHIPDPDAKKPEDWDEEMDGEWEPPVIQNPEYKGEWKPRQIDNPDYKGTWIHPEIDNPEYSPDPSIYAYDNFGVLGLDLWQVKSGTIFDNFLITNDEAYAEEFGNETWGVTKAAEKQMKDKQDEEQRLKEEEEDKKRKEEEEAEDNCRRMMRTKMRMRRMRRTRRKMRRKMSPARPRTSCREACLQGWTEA
Briefly: cell-based or functional assay.

Test [3] addresses T2, Ins 5 type mutant CALR protein on …. Briefly: cell-based or functional assay. The source holds these as a separate data set.

B1: Antibody 101 (bispecific antibody, human IgG1, kappa, L234A L235A)
chain 1: not shown
chain 2: DIQMTQSPSFVSASVGDRVTITCLASEDIYSYLAWYQQKPGKAPKLLIFAANRLQDGVPSRFSGGGSGTGFTLTISSLQPEDFATYFCLQGSKFPYTFGQGTKLEINRTVAAPSVFIFPPSDEQLKSGTASVVCLLNNFYPREAKVQWKVDNALQSGNSQESVTEQDSKDSTYSLSSTLTLSKADYEKHKVYACEVTHQGLSSPVTKSFNRGECGGGGSGGGGSQVQLVQSGGGVVQPGRSLRLSCKASGYTFTRYTMHWVRQAPGKGLEWIGYINPSRGYTNYNQKVKDRFTISRDNSKNTAFLQMDSLRPEDTGVYFCARYYDDHYSLDYWGQGTPVTVSSGGGGSGGGGSGGGGSDIQMTQSPSSLSASVGDRVTITCSASSSVSYMNWYQQTPGKAPKRWIYDTSKLASGVPSRFSGSGSGTDYTFTISSLQPEDIATYYCQQWSSNPFTFGQGTKLQITR
In the case of B1, the equilibrium dissociation constant (Kd) in test [1] is less than 0.001 nM. Also, the “EC50 of cytotoxic activity (pM)” value in test [2] turned out to be 1660 pM.

B2: Antibody 103 (bispecific antibody, human IgG1, kappa, L234A L235A)
chain 1: not shown
chain 2: B1 chain 2 with F10S, V11L, D56S, G65S, G70D, F87Y, Q100P, L104V, E105D, N107K
On to B2, for which the Kd in test [1] is less than 0.001 nM. In test [2], the “EC50 of cytotoxic activity (pM)” value stood at 399 pM.

B3: Antibody 104 (bispecific antibody, human IgG1, kappa, L234A L235A)
chain 1: not shown
chain 2: B1 chain 2 with F10S, V11L, D56S, G65S, G70D, F87Y, Q100P, L104V, E105D, N107K
In the case of B3, the Kd in test [1] was less than 0.001 nM. Besides, in test [2], the “EC50 of cytotoxic activity (pM)” value stood at 621 pM.

B4: Antibody 102 (bispecific antibody, human IgG1, kappa, L234A L235A)
chain 1: not shown
chain 2: B1 chain 2 with D56S
Molecule B4 returned a Kd in test [1] of less than 0.001 nM. The “EC50 of cytotoxic activity (pM)” value in test [2] came out at 850 pM.

B5: Antibody 100 (bispecific antibody, human IgG1, kappa, L234A L235A)
chain 1: not shown
chain 2: B1 chain 2
In test [1], B5 came in with a Kd of less than 0.001 nM. Also, in test [2], the “EC50 of cytotoxic activity (pM)” value turned out to be 1080 pM.

B6: Antibody 13 (bispecific antibody, human IgG1, kappa, L234A L235A)
heavy 1: not shown
heavy 2: QVQLQQSGAELVKPGSSVKISCKASGYTFTRNFIHWIKQQPGNGLEWIGWIFPGDGDTEYNQKFNGKATLTADKSSSTAYMQLSSLTSEDSAVYFCARGNYNYEYFDYWGQGVMVTVSSASTKGPSVFPLAPSSKSTSGGTAALGCLVKDYFPEPVTVSWNSGALTSGVHTFPAVLQSSGLYSLSSVVTVPSSSLGTQTYICNVNHKPSNTKVDKRVEPKSCDKTHTCPPCPAPEAAGGPSVFLFPPKPKDTLMISRTPEVTCVVVDVSHEDPEVKFNWYVDGVEVHNAKTKPREEQYNSTYRVVSVLTVLHQDWLNGKEYKCKVSNKALPAPIEKTISKAKGQPREPQVCTLPPSREEMTKNQVSLSCAVKGFYPSDIAVEWESNGQPENNYKTTPPVLDSDGSFFLVSKLTVDKSRWQQGNVFSCSVMHEALHNHYTQKSLSLSPGKGGGGSQVQLVQSGGGVVQPGRSLRLSCKASGYTFTRYTMHWVRQAPGKGLEWIGYINPSRGYTNYNQKVKDRFTISRDNSKNTAFLQMDSLRPEDTGVYFCARYYDDHYSLDYWGQGTPVTVSSGGGGSGGGGSGGGGSDIQMTQSPSSLSASVGDRVTITCSASSSVSYMNWYQQTPGKAPKRWIYDTSKLASGVPSRFSGSGSGTDYTFTISSLQPEDIATYYCQQWSSNPFTFGQGTKLQITR
light: DIQMTQSPASLSASLGETVSIECLASEDIYSYLAWYQQKPGKSPQLLIFAANRLQDGVPSRFSGSGSGTQFSLKISGMQPEDEGDYFCLQGSKFPYTFGPGTKLELNRTVAAPSVFIFPPSDEQLKSGTASVVCLLNNFYPREAKVQWKVDNALQSGNSQESVTEQDSKDSTYSLSSTLTLSKADYEKHKVYACEVTHQGLSSPVTKSFNRGEC
notes: B3 IgG with knob-into-hole heavy chains, hOKT3 scFv fused to the C-terminus of one heavy chain
In test [1], B6 yielded a Kd of less than 0.001 nM. Moreover, the “EC50 of cytotoxic activity (calcein release, T-LAK effector cells)” value (“EC50 … (calcein release, T-LAK effector cells)” below) in test [3] was 4.47 nM.

B7: Antibody 15 (bispecific antibody, human IgG1, kappa, L234A L235A)
heavy: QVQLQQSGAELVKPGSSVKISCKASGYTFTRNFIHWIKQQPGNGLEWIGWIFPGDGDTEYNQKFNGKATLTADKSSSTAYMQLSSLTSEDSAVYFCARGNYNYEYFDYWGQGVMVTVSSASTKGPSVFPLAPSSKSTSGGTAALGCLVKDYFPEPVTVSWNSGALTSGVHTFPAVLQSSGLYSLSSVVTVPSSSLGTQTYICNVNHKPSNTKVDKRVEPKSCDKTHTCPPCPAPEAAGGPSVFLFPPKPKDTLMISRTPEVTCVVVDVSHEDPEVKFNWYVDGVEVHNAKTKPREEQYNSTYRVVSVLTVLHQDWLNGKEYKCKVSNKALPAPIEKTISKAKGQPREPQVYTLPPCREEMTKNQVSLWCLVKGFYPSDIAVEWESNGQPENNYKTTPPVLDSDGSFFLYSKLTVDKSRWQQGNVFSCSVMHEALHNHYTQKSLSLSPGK
light: B6 light
chain: QVQLVQSGGGVVQPGRSLRLSCKASGYTFTRYTMHWVRQAPGKGLEWIGYINPSRGYTNYNQKVKDRFTISRDNSKNTAFLQMDSLRPEDTGVYFCARYYDDHYSLDYWGQGTPVTVSSGGGGSGGGGSGGGGSDIQMTQSPSSLSASVGDRVTITCSASSSVSYMNWYQQTPGKAPKRWIYDTSKLASGVPSRFSGSGSGTDYTFTISSLQPEDIATYYCQQWSSNPFTFGQGTKLQITREPKSCDKTHTCPPCPAPEAAGGPSVFLFPPKPKDTLMISRTPEVTCVVVDVSHEDPEVKFNWYVDGVEVHNAKTKPREEQYNSTYRVVSVLTVLHQDWLNGKEYKCKVSNKALPAPIEKTISKAKGQPREPQVCTLPPSREEMTKNQVSLSCAVKGFYPSDIAVEWESNGQPENNYKTTPPVLDSDGSFFLVSKLTVDKSRWQQGNVFSCSVMHEALHNHYTQKSLSLSPGK
notes: B3 half IgG hetero-associated by knob-into-hole with hOKT3 scFv-Fc
In test [1], B7 had a Kd of 6.68 nM. For the same molecule, the “EC50 … (calcein release, T-LAK effector cells)” value in test [3] is 1.29 nM.

B8: Antibody 14 (bispecific antibody, human IgG1, kappa, L234A L235A)
heavy: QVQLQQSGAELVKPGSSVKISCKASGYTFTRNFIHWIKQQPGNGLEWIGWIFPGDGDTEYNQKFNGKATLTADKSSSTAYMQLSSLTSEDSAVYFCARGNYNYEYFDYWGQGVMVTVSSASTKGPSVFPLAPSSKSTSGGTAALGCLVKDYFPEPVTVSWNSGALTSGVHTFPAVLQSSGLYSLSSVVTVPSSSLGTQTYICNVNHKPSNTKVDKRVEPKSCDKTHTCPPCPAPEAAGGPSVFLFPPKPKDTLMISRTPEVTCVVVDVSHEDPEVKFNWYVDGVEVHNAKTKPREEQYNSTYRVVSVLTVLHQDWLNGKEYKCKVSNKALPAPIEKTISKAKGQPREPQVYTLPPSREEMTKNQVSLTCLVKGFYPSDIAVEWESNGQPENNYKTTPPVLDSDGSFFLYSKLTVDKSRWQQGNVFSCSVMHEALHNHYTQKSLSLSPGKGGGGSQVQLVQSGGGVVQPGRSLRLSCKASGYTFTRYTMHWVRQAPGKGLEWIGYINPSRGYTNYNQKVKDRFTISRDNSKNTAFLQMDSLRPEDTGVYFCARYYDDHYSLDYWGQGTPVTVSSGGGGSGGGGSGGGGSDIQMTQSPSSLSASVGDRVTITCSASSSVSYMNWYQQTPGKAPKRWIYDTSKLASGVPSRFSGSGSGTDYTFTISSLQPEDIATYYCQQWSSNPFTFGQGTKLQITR
light: B6 light
notes: B3 IgG with hOKT3 scFv fused to the heavy chain C-terminus
Molecule B8 displayed an equilibrium dissociation constant (Kd) in test [1] of less than 0.001 nM. The “EC50 … (calcein release, T-LAK effector cells)” value in test [3] was 0.989 nM.

B9: Antibody 86 (bispecific antibody)
chain 1: not shown
chain 2: DIQMTQSPSSLSASVGDRVTITCLASEDIYSYLAWYQQKPGKAPKLLIFAANRLQSGVPSRFSGSGSGTDFTLTISSLQPEDFATYYCLQGSKFPYTFGPGTKVDIKRTVAAPSVFIFPPSDEQLKSGTASVVCLLNNFYPREAKVQWKVDNALQSGNSQESVTEQDSKDSTYSLSSTLTLSKADYEKHKVYACEVTHQGLSSPVTKSFNRGEC
On to B9, for which, in test [1], the equilibrium dissociation constant (Kd) is less than 0.001 nM. The “EC50 of cytotoxic activity (pM)” value in test [2] was determined as 58 pM.

B10: Antibody 106 (bispecific antibody)
chain 1: QVQLVQSGAEVKKPGSSVKVSCKASGYTFTRNFIHWIRQAPGQGLEWIGWIFPGDADTEYNQKFSGRATITADKSTSTAYMELSSLRSEDTAVYYCARGNYNYEYFDYWGQGTMVTVSSASTKGPSVFPLAPSSKSTSGGTAALGCLVKDYFPEPVTVSWNSGALTSGVHTFPAVLQSSGLYSLSSVVTVPSSSLGTQTYICNVNHKPSNTKVDKRVEPKSCGGGGSQVQLVQSGGGVVQPGRSLRLSCKASGYTFTRYTMHWVRQAPGKGLEWIGYINPSRGYTNYNQKVKDRFTISRDNSKNTAFLQMDSLRPEDTGVYFCARYYDDHYSLDYWGQGTPVTVSSGGGGSGGGGSGGGGSDIQMTQSPSSLSASVGDRVTITCSASSSVSYMNWYQQTPGKAPKRWIYDTSKLASGVPSRFSGSGSGTDYTFTISSLQPEDIATYYCQQWSSNPFTFGQGTKLQITRHHHHHH
chain 2: B9 chain 2 with S56D
Take B10: binding in test [1] was characterised by a dissociation constant (Kd) of 4.99 nM. Moreover, in test [2], the “EC50 of cytotoxic activity (pM)” value amounted to 2560 pM.

B11: Antibody 109 (bispecific antibody)
chain 1: not shown
chain 2: B9 chain 2
chain 3: DKTHTCPPCPAPEAAGGPSVFLFPPKPKDTLMISRTPEVTCVVVDVSHEDPEVKFNWYVDGVEVHNAKTKPREEQYNSTYRVVSVLTVLHQDWLNGKEYKCKVSNKALPAPIEKTISKAKGQPREPQVCTLPPSREEMTKNQVSLSCAVKGFYPSDIAVEWESNGQPENNYKTTPPVLDSDGSFFLVSKLTVDKSRWQQGNVFSCSVMHEALHNHYTQKSLSLSPGK
Molecule B11 had a Kd in test [1] of 9.91 nM. Besides, the “EC50 of cytotoxic activity (pM)” value in test [2] was found to be 3800 pM.

B12: Antibody 111 (bispecific antibody)
chain 1: not shown
chain 2: B9 chain 2
chain 3: B11 chain 3
B12: in test [1], the Kd was 12.8 nM. Further, the “EC50 of cytotoxic activity (pM)” value in test [2] amounted to 6110 pM.

B13: Antibody 110 (bispecific antibody)
chain 1: not shown
chain 2: B9 chain 2
chain 3: B11 chain 3
Turning to B13, in test [1], the Kd stood at 5.33 nM. Also, the “EC50 of cytotoxic activity (pM)” value in test [2] worked out at 2540 pM.

B14: Antibody 88 (bispecific antibody)
chain 1: not shown
chain 2: B9 chain 2
For B14, in test [1], the dissociation constant Kd was less than 0.001 nM. Besides, in test [2], the “EC50 of cytotoxic activity (pM)” value came to 28 pM.

B15: Antibody 89 (bispecific antibody)
chain 1: not shown
chain 2: B9 chain 2
B15: the Kd in test [1] is less than 0.001 nM. Moreover, in test [2], the “EC50 of cytotoxic activity (pM)” value came to 77 pM.

B16: Antibody 94 (bispecific antibody)
chain 1: not shown
chain 2: B9 chain 2 with S56D
In test [1], B16 displayed a Kd of less than 0.001 nM. Besides, the “EC50 of cytotoxic activity (pM)” value in test [2] worked out at 32 pM.

B17: Antibody 107 (bispecific antibody)
chain 1: not shown
chain 2: B9 chain 2 with S56D
chain 3: B11 chain 3
As for B17, in test [1], the Kd turned out to be 12.1 nM. Besides, the “EC50 of cytotoxic activity (pM)” value in test [2] worked out at 3870 pM.

B18: Antibody 91 (bispecific antibody)
chain 1: not shown
chain 2: B9 chain 2
In turn, B18 returned a Kd in test [1] of less than 0.001 nM. The “EC50 of cytotoxic activity (pM)” value in test [2] was 230 pM.

B19: Antibody 90 (bispecific antibody)
chain 1: not shown
chain 2: B9 chain 2
The molecule B19 came in with an equilibrium dissociation constant (Kd) in test [1] of less than 0.001 nM. Moreover, the “EC50 of cytotoxic activity (pM)” value in test [2] was 269 pM.

B20: Antibody 92 (bispecific antibody)
chain 1: not shown
chain 2: B9 chain 2
B20 displayed a dissociation constant Kd in test [1] of less than 0.001 nM. Moreover, in test [2], the “EC50 of cytotoxic activity (pM)” value was found to be 47 pM.
